B1: Phosphocarrier protein HPr wild type, Q9K8D2 (protein)
chain: MAEKTFTITAETGIHARPATQLVNKAGQYSSEITLEYKGKAVNLKSIMGVMSLGVGKGAQVTIKAEGSDEAEALKGIEEVIKEGLGE
B2: Phosphocarrier protein HPr wild type, P42013 (protein)
chain: MAEKTFKVVSDSGIHARPATILVQTASKFNSEIQLEYNGKTVNLKSIMGVMSLGIPKGATIKITAEGADAAEAMAALTDTLAKEGLAE
B3: Phosphocarrier protein HPr wild type, P08877 (protein)
chain: MAQKTFKVTADSGIHARPATVLVQTASKYDADVNLEYNGKTVNLKSIMGVMSLGIAKGAEITISASGADENDALNALEETMKSEGLGE
B4: Phosphocarrier protein HPr wild type, Q8ENY1 (protein)
chain: MKSQTFTITAETGVHARPATLLVNKAGQFDSEIEVSYKGKQVNLKSIMGVMSLGIPKGAEIEVSADGKDEEDALNGVAEVIKEHLGE
B5: Phosphocarrier protein HPr wild type, Q8VP89 (protein)
chain: MASKDFHIVAETGIHARPATLLVQTASKFASDITLEYKGKAVNLKSIMGVMSLGVGQGADVTISAEGPDADDAIAAIAETMTKEGLA

Settings: Halalkalibacterium halodurans (strain ATCC BAA-125 / DSM 18197 / FERM 7344 / JCM 9153 / C-125); pH 7; 25 °C; GdnHCl; CD; sodium phosphate 10 mM; reversible: Yes; whole UniProt chain shown

Protein | denaturant m value | unfolding free energy
B1 | 2.36 kcal/mol/M | 5.3 kcal/mol

Same assay, conditions: Halalkalibacterium halodurans (strain ATCC BAA-125 / DSM 18197 / FERM 7344 / JCM 9153 / C-125); pH 7; 25 °C; Urea; CD; sodium phosphate 10 mM; reversible: Yes; whole UniProt chain shown

Protein | denaturant m value | unfolding free energy
B1 | 0.9 kcal/mol/M | 6.8 kcal/mol

Same assay, conditions: Halalkalibacterium halodurans (strain ATCC BAA-125 / DSM 18197 / FERM 7344 / JCM 9153 / C-125); pH 7; Thermal; CD; sodium phosphate 10 mM; reversible: Yes; whole UniProt chain shown

Protein | Tm | unfolding enthalpy (van 't Hoff)
B1 | 82.3 °C | 87 kcal/mol

Same assay, conditions: Geobacillus stearothermophilus; pH 7; 25 °C; GdnHCl; CD; sodium phosphate 10 mM; reversible: Yes; whole UniProt chain shown

Protein | denaturant m value | unfolding free energy
B2 | 2.43 kcal/mol/M | 6.7 kcal/mol

Same assay, conditions: Geobacillus stearothermophilus; pH 7; 25 °C; Urea; CD; sodium phosphate 10 mM; reversible: Yes; whole UniProt chain shown

Protein | denaturant m value | unfolding free energy
B2 | 0.98 kcal/mol/M | 8.2 kcal/mol

Same assay, conditions: Geobacillus stearothermophilus; pH 7; Thermal; CD; sodium phosphate 10 mM; reversible: Yes; whole UniProt chain shown

Protein | Tm | unfolding enthalpy (van 't Hoff)
B2 | 88.3 °C | 99 kcal/mol

Same assay, conditions: Bacillus subtilis (strain 168); pH 7; 25 °C; GdnHCl; CD; sodium phosphate 10 mM; reversible: Yes; whole UniProt chain shown

Protein | denaturant m value | unfolding free energy
B3 | 3.28 kcal/mol/M | 3.4 kcal/mol

Same assay, conditions: Bacillus subtilis (strain 168); pH 7; 25 °C; Urea; CD; sodium phosphate 10 mM; reversible: Yes; whole UniProt chain shown

Protein | denaturant m value | unfolding free energy
B3 | 1.08 kcal/mol/M | 5 kcal/mol

Same assay, conditions: Bacillus subtilis (strain 168); pH 7; Thermal; CD; sodium phosphate 10 mM; reversible: Yes; whole UniProt chain shown

Protein | Tm | unfolding enthalpy (van 't Hoff)
B3 | 73 °C | 77 kcal/mol

Same assay, conditions: Oceanobacillus iheyensis (strain DSM 14371 / CIP 107618 / JCM 11309 / KCTC 3954 / HTE831); pH 7; 25 °C; GdnHCl; CD; sodium phosphate 10 mM; reversible: Yes; whole UniProt chain shown

Protein | denaturant m value | unfolding free energy
B4 | 2.56 kcal/mol/M | 1.4 kcal/mol

Same assay, conditions: Oceanobacillus iheyensis (strain DSM 14371 / CIP 107618 / JCM 11309 / KCTC 3954 / HTE831); pH 7; 25 °C; Urea; CD; sodium phosphate 10 mM; reversible: Yes; whole UniProt chain shown

Protein | denaturant m value | unfolding free energy
B4 | 1.27 kcal/mol/M | 3.4 kcal/mol

Same assay, conditions: Oceanobacillus iheyensis (strain DSM 14371 / CIP 107618 / JCM 11309 / KCTC 3954 / HTE831); pH 7; Thermal; CD; sodium phosphate 10 mM; reversible: Yes; whole UniProt chain shown

Protein | Tm | unfolding enthalpy (van 't Hoff)
B4 | 58 °C | 59 kcal/mol

Same assay, conditions: Streptococcus thermophilus; pH 7; 25 °C; GdnHCl; CD; sodium phosphate 10 mM; reversible: Yes; whole UniProt chain shown

Protein | denaturant m value | unfolding free energy
B5 | 2.75 kcal/mol/M | 5.4 kcal/mol

Same assay, conditions: Streptococcus thermophilus; pH 7; 25 °C; Urea; CD; sodium phosphate 10 mM; reversible: Yes; whole UniProt chain shown

Protein | denaturant m value | unfolding free energy
B5 | 0.86 kcal/mol/M | 6.3 kcal/mol
